Experiments:
[1] = target: T1, Srr1-BR (untagged recombinant binding region of Srr1) (Streptococcus agalactiae (strain NCTC …)); assay: SPR; BIAcore T100; fibrinogen amine-coupled to a CM5 chip; Srr1-BR or Srr2-BR 1.25–160 μM flowed at 10 μl/min; KD from equilibrium responses; settings: both partners purified
T1 construct: I took it to be this one; also called untagged Srr1-BR; recombinant Srr1; source: E. coli, purified (nickel-nitrilotriacetic acid or anti-FLAG M2-agarose)

[2] = target: T2, Srr2-BR (untagged recombinant binding region of Srr2) (Streptococcus agalactiae (strain COH1)); assay: as above; settings: both partners purified
T2 construct: I took it to be this one; also called untagged Srr2-BR; recombinant Srr2; source: E. coli, purified (nickel-nitrilotriacetic acid or anti-FLAG M2-agarose)
T2 sequence (P02671 36-866): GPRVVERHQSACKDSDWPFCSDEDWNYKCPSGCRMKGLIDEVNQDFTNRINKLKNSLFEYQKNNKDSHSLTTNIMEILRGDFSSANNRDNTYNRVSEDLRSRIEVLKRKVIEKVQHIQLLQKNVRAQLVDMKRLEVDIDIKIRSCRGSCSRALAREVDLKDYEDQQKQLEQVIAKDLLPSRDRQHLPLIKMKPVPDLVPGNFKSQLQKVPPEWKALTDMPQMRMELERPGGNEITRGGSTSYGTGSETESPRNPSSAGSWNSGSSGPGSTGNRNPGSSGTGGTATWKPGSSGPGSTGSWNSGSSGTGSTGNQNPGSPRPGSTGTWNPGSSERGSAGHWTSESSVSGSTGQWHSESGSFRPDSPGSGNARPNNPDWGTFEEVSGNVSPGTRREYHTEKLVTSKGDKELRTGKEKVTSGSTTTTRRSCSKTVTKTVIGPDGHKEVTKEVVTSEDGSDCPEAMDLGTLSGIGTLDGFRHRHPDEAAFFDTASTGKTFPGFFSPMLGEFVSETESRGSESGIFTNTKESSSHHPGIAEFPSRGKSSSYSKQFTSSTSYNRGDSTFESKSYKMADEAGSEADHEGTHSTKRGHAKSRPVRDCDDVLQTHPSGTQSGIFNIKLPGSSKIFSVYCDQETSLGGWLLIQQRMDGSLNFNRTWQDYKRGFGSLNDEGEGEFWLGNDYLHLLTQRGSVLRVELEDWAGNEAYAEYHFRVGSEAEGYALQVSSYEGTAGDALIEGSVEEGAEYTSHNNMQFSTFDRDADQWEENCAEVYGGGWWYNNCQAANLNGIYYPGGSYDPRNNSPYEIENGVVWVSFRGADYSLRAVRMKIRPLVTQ

T1 sequence (P02671 36-866): as above

B1: purified human fibrinogen (complex)
chain 1: ADSGEGDFLAEGGGVRGPRVVERHQSACKDSDWPFCSDEDWNYKCPSGCRMKGLIDEVNQDFTNRINKLKNSLFEYQKNNKDSHSLTTNIMEILRGDFSSANNRDNTYNRVSEDLRSRIEVLKRKVIEKVQHIQLLQKNVRAQLVDMKRLEVDIDIKIRSCRGSCSRALAREVDLKDYEDQQKQLEQVIAKDLLPSRDRQHLPLIKMKPVPDLVPGNFKSQLQKVPPEWKALTDMPQMRMELERPGGNEITRGGSTSYGTGSETESPRNPSSAGSWNSGSSGPGSTGNRNPGSSGTGGTATWKPGSSGPGSTGSWNSGSSGTGSTGNQNPGSPRPGSTGTWNPGSSERGSAGHWTSESSVSGSTGQWHSESGSFRPDSPGSGNARPNNPDWGTFEEVSGNVSPGTRREYHTEKLVTSKGDKELRTGKEKVTSGSTTTTRRSCSKTVTKTVIGPDGHKEVTKEVVTSEDGSDCPEAMDLGTLSGIGTLDGFRHRHPDEAAFFDTASTGKTFPGFFSPMLGEFVSETESRGSESGIFTNTKESSSHHPGIAEFPSRGKSSSYSKQFTSSTSYNRGDSTFESKSYKMADEAGSEADHEGTHSTKRGHAKSRPV
chain 2: QGVNDNEEGFFSARGHRPLDKKREEAPSLRPAPPPISGGGYRARPAKAAATQKKVERKAPDAGGCLHADPDLGVLCPTGCQLQEALLQQERPIRNSVDELNNNVEAVSQTSSSSFQYMYLLKDLWQKRQKQVKDNENVVNEYSSELEKHQLYIDETVNSNIPTNLRVLRSILENLRSKIQKLESDVSAQMEYCRTPCTVSCNIPVVSGKECEEIIRKGGETSEMYLIQPDSSVKPYRVYCDMNTENGGWTVIQNRQDGSVDFGRKWDPYKQGFGNVATNTDGKNYCGLPGEYWLGNDKISQLTRMGPTELLIEMEDWKGDKVKAHYGGFTVQNEANKYQISVNKYRGTAGNALMDGASQLMGENRTMTIHNGMFFSTYDRDNDGWLTSDPRKQCSKEDGGGWWYNRCHAANPNGRYYWGGQYTWDMAKHGTDDGVVWMNWKGSWYSMRKMSMKIRPFFPQQ
chain 3: YVATRDNCCILDERFGSYCPTTCGIADFLSTYQTKVDKDLQSLEDILHQVENKTSEVKQLIKAIQLTYNPDESSKPNMIDAATLKSRKMLEEIMKYEASILTHDSSIRYLQEIYNSNNQKIVNLKEKVAQLEAQCQEPCKDTVQIHDITGKDCQDIANKGAKQSGLYFIKPLKANQQFLVYCEIDGSGNGWTVFQKRLDGSVDFKKNWIQYKEGFGHLSPTGTTEFWLGNEKIHLISTQSAIPYALRVELEDWNGRTSTADYAMFKVGPEADKYRLTYAYFAGGDAGDAFDGFDFGDDPSDKFFTSHNGMQFSTWDNDNDKFEGNCAEQDGSGWWMNKCHAGHLNGVYYQGGTYSKASTPNGYDNGIIWATWKTRWYSMKKTTMKIIPFNRLTIGEGQQHHLGGAKQAGDV
modifications: plasma-derived disulfide-linked hexamer (AαBβγ)2, N-glycosylated; Aα taken as the 610-residue circulating form (paper's Aα(1-610)), γ as the major γA form with the C-terminus printed in the text …
In the case of B1, the Kd [1] is reported as 21 µM and the Kd [2] is reported as 3.7 µM.

From paper PMC3861647, “Characterization of Fibrinogen Binding by Glycoproteins Srr1 and Srr2 of Streptococcus agalactiae*” (The Journal of Biological Chemistry, 2013)
